Laboratory results published in PMC9287425, “Hepatic non-parenchymal S100A9-TLR4-mTORC1 axis normalizes diabetic ketogenesis” (Nature Communications, 2022).

B1: recombinant human S100A9, P06702 1-114 (natural protein)
chain: MTCKMSQLERNIETIINTFHQYSVKLGHPDTLNQGEFKELVRKDLQNFLKKENKNEKVIEHIMEDLDTNADKQLSFEEFIMLMARLTWASHEKMHEGDEGPGHHHKPGLGEGTP
B2: recombinant murine S100A9 (natural protein, UniProt P31725 1-113, looked up)
chain: MANKAPSQMERSITTIIDTFHQYSRKEGHPDTLSKKEFRQMVEAQLATFMKKEKRNEALINDIMEDLDTNQDNQLSFEECMMLMAKLIFACHEKLHENNPRGHGHSHGKGCGK
notes: cDNA encoding the protein cloned into a pET29+ vector; The homodimeric status is said of r-hS100A9; also called r-mS100A9; not shown: His10, N-terminal, cleaved; MBP, N-terminal, cleaved

Experiments:
[1] = biological target: T1, recombinant human S100A9 (human), P06702; assay: SEC-MALS; 30 µL of protein at 5 mg/mL on a Superose 6 Increase 10/300 GL column; light scattering and refractive index detectors; settings: remark: other sources report otherwise
T1 chain: B1 chain

[2] = biological target: the molecule itself; assay: SEC; analytical gel filtration, Superose 6 Increase 3.2/300 column

Binder	stoichiometry N [1]	binding result [2]
B1	2	
B2		binds
